B1: Proto-oncogene vav, residues 782 to 842; numbered along this chain, P15498 (parent)
chain: KYFGTAKARYDFCARDRSELSLKEGDIIKILNKKGQQGWWRGEIYGRVGWFPANYVEEDYS
B2: SAM and SH3 domain-containing protein 1, residues 630 to 700; numbered along this chain, O94885 (parent)
chain: GRPPQPKSVEDLLDRINLKEHMPTFLFNGYEDLDTFKLLEEEDLDELNIRDPEHRAVLLTAVELLQEYDSN

± gives the uncertainty stated by the source.

The first series covers variants of B1. In words: abundance fitness (aPCA) (normalised: wild type 0, dead -1); higher = more abundant; growth selection in yeast, the domain comes from the species named. The conditions noted are these: Homo sapiens.
R15G: the abundance fitness is -0.316 ± 0.07.

As to Y2F, the abundance fitness came out at 0.061 ± 0.11.

For the variant Y2M, the abundance fitness was -0.082 ± 0.12.

As for Y2S, the abundance fitness was -0.033 ± 0.078.

With Y2G, the abundance fitness is -0.15 ± 0.093.

With Y2P, the abundance fitness is -0.212 ± 0.1.

Consider Y2C, for which the abundance fitness was -0.229 ± 0.1.

Regarding T5E, the abundance fitness was -0.25 ± 0.11.

In the case of T5S, the abundance fitness is -0.179 ± 0.077.

Take K1T: the abundance fitness was -0.27 ± 0.12.

On to K1L, for which the abundance fitness was -0.21 ± 0.1.

For the variant K1F, the abundance fitness was -0.159 ± 0.36.

Regarding K1P, the abundance fitness was -0.822 ± 0.32.

For the variant K1Q, the abundance fitness is 0.088 ± 0.27.

With K1G, the abundance fitness was -0.227 ± 0.095.

On to W40Y, for which the abundance fitness was -0.182 ± 0.14.

Turning to W40A, the abundance fitness is -1.13 ± 0.26.

As for W40C, the abundance fitness is -0.833 ± 0.23.

On to W40P, for which the abundance fitness is -0.876 ± 0.46.

As for D26E, the abundance fitness was -0.172 ± 0.074.

Regarding D26G, the abundance fitness is -0.948 ± 0.17.

With D26Q, the abundance fitness is -0.278 ± 0.13.

Turning to D26N, the abundance fitness is -0.45 ± 0.1.

Consider A53V, for which the abundance fitness was -0.301 ± 0.061.

For A53E, the abundance fitness is -0.208 ± 0.099.

Turning to A53K, the abundance fitness is -0.243 ± 0.1.

Regarding D11I, the abundance fitness is -0.693 ± 0.49.

Turning to D11S, the abundance fitness was -0.251 ± 0.084.

Turning to D11K, the abundance fitness is -0.362 ± 0.12.

In the case of D11C, the abundance fitness was -0.264 ± 0.15.

In the case of G25F, the abundance fitness is -0.786 ± 0.28.

As to G25Y, the abundance fitness is -1.02 ± 0.41.

Take I30N: the abundance fitness was -0.77 ± 0.33.

Regarding I30Y, the abundance fitness is -0.74 ± 0.25.

On to I30L, for which the abundance fitness is -0.319 ± 0.055.

Consider E19L, for which the abundance fitness was -0.593 ± 0.098.

Take E19M: the abundance fitness came to 0 ± 0.1.

For the variant E19Y, the abundance fitness was -0.763 ± 0.38.

As for E19V, the abundance fitness is -0.922 ± 0.2.

Consider E19K, for which the abundance fitness is -0.885 ± 0.22.

In the case of Q36E, the abundance fitness is -0.005 ± 0.077.

Regarding Q36D, the abundance fitness is -0.073 ± 0.18.

As for Q36S, the abundance fitness is -0.195 ± 0.084.

As to Q36A, the abundance fitness was -0.07 ± 0.094.

Take K23Q: the abundance fitness was -0.221 ± 0.12.

On to Y60E, for which the abundance fitness turned out to be 0.005 ± 0.13.

Y60W: the abundance fitness was -0.169 ± 0.12.

In the case of Y60Q, the abundance fitness was -0.097 ± 0.12.

As to Y60C, the abundance fitness was -0.119 ± 0.14.

As to Y60F, the abundance fitness is 0.017 ± 0.15.

For K34C, the abundance fitness is -0.117 ± 0.11.

As for K34V, the abundance fitness was -0.072 ± 0.075.

K34G: the abundance fitness is -0.051 ± 0.07.

In the case of K34F, the abundance fitness is -0.363 ± 0.31.

As to R9S, the abundance fitness is -0.34 ± 0.088.

In another series the parent is B2. The description is as above. The conditions noted are these: Homo sapiens.
In the case of V9T, the abundance fitness was -0.701 ± 0.056.

V9Q: the abundance fitness is -0.796 ± 0.087.

Regarding M22Q, the abundance fitness was -0.366 ± 0.056.

Consider M22L, for which the abundance fitness was determined as 0.377 ± 0.032.

As to M22I, the abundance fitness stood at 0.131 ± 0.039.

Consider R2C, for which the abundance fitness is -0.971 ± 0.13.

For R2D, the abundance fitness was -0.137 ± 0.063.

For the variant T35W, the abundance fitness is -0.973 ± 0.12.

Turning to T35R, the abundance fitness came to 0.135 ± 0.037.

Turning to Q5F, the abundance fitness is 0.068 ± 0.048.

On to Q5H, for which the abundance fitness was -0.033 ± 0.055.

As for Q5S, the abundance fitness was -0.334 ± 0.047.

With Q5G, the abundance fitness is -0.694 ± 0.093.

Regarding Q5I, the abundance fitness was -0.02 ± 0.048.

As for P6V, the abundance fitness is -0.168 ± 0.044.

P6H: the abundance fitness was -0.607 ± 0.085.

In the case of S8M, the abundance fitness was -1.03 ± 0.14.

Take S8E: the abundance fitness was -1.17 ± 0.25.

Take S8L: the abundance fitness was -0.818 ± 0.067.

On to L26P, for which the abundance fitness is -0.825 ± 0.073.

As to L26D, the abundance fitness is -0.667 ± 0.089.

Regarding L26W, the abundance fitness is -0.533 ± 0.064.

Regarding L44M, the abundance fitness was -0.702 ± 0.073.

For E40T, the abundance fitness was 0.398 ± 0.035.

Consider E40N, for which the abundance fitness is 0.196 ± 0.041.

L47D: the abundance fitness was -0.828 ± 0.073.

Take L47E: the abundance fitness was -0.765 ± 0.094.

With P4N, the abundance fitness came out at 0.09 ± 0.05.

Consider L33K, for which the abundance fitness is -1 ± 0.13.

With L33V, the abundance fitness was -0.607 ± 0.058.

Turning to V62G, the abundance fitness was -0.524 ± 0.065.

As for V62W, the abundance fitness is -0.8 ± 0.079.

As to V62F, the abundance fitness is -0.916 ± 0.1.

With K19I, the abundance fitness is -0.073 ± 0.042.

On to K19T, for which the abundance fitness came to 0.042 ± 0.036.

In the case of K19L, the abundance fitness came to 0.127 ± 0.031.

Consider F27Y, for which the abundance fitness worked out at 0.122 ± 0.045.

For K7A, the abundance fitness was -0.066 ± 0.046.

As to K7Q, the abundance fitness was -0.119 ± 0.067.

On to E42T, for which the abundance fitness amounted to 0.035 ± 0.039.

As for E42P, the abundance fitness is -0.124 ± 0.042.

Consider E42F, for which the abundance fitness was -0.743 ± 0.067.

For E20L, the abundance fitness was -0.559 ± 0.063.

Consider E20K, for which the abundance fitness is -0.755 ± 0.11.

As for T24Q, the abundance fitness is -0.544 ± 0.064.

As for T24K, the abundance fitness is -0.079 ± 0.046.

On to T24C, for which the abundance fitness was -0.474 ± 0.057.

Turning to R55F, the abundance fitness was -0.864 ± 0.093.

On to R55I, for which the abundance fitness was -0.696 ± 0.078.

On to R55Y, for which the abundance fitness was -0.935 ± 0.093.

With L64M, the abundance fitness was 0.193 ± 0.043.

As to I49N, the abundance fitness is -0.926 ± 0.076.

As for K37Q, the abundance fitness is -0.478 ± 0.073.

For P3L, the abundance fitness is -0.036 ± 0.036.

As to P3T, the abundance fitness was -0.014 ± 0.041.

Regarding H21S, the abundance fitness is -0.785 ± 0.05.

With E53V, the abundance fitness is -0.283 ± 0.046.

For D51A, the abundance fitness is -0.659 ± 0.056.

On to R15S, for which the abundance fitness is 0.116 ± 0.033.

Turning to R15D, the abundance fitness was -0.454 ± 0.065.

For F36A, the abundance fitness is -0.717 ± 0.067.

On to L13A, for which the abundance fitness is -0.788 ± 0.075.

For the variant N17E, the abundance fitness was -0.333 ± 0.063.

Consider N17V, for which the abundance fitness is -0.817 ± 0.062.

Turning to A56Y, the abundance fitness was -0.605 ± 0.054.

In the case of D45C, the abundance fitness was -0.416 ± 0.053.

For the variant D45Y, the abundance fitness is -0.496 ± 0.052.

Regarding D45P, the abundance fitness was -0.833 ± 0.063.

Turning to L59F, the abundance fitness was -0.792 ± 0.07.

Turning to N28Q, the abundance fitness was -0.644 ± 0.077.

As to D11I, the abundance fitness was -1.08 ± 0.11.

Turning to D11G, the abundance fitness is -0.649 ± 0.08.

On to D11W, for which the abundance fitness was -0.793 ± 0.093.

Take L58F: the abundance fitness is -0.596 ± 0.099.

As for L58T, the abundance fitness was -0.72 ± 0.07.

As to L58K, the abundance fitness was -0.588 ± 0.085.

Consider L58A, for which the abundance fitness was -0.531 ± 0.06.

For Q66V, the abundance fitness was -0.587 ± 0.054.

On to Q66S, for which the abundance fitness was -0.331 ± 0.039.

As for Q66T, the abundance fitness is -0.347 ± 0.044.

For F25N, the abundance fitness is -0.612 ± 0.072.

With Y68A, the abundance fitness was found to be 0.245 ± 0.039.

R50Q: the abundance fitness is 0.039 ± 0.048.

On to R50F, for which the abundance fitness was -0.071 ± 0.049.

For D34M, the abundance fitness was -0.518 ± 0.058.

In the case of D34W, the abundance fitness was -0.704 ± 0.082.

With G29E, the abundance fitness was -0.844 ± 0.1.

With Y30A, the abundance fitness was -0.92 ± 0.076.

Y30M: the abundance fitness was -0.568 ± 0.074.

Take E63H: the abundance fitness is -0.075 ± 0.042.

As to E63F, the abundance fitness is -0.866 ± 0.08.

With E63I, the abundance fitness is -0.898 ± 0.077.

Turning to D14Y, the abundance fitness was -0.602 ± 0.069.

Consider E41N, for which the abundance fitness was -0.408 ± 0.061.

As for E41V, the abundance fitness was -0.495 ± 0.056.

E41F: the abundance fitness was -0.971 ± 0.091.

For L12V, the abundance fitness is -0.464 ± 0.045.

For L12Y, the abundance fitness is -0.672 ± 0.087.

With L12Q, the abundance fitness was -0.679 ± 0.077.

As to D69R, the abundance fitness is -0.531 ± 0.058.

Take D69M: the abundance fitness is -0.822 ± 0.079.

Regarding L18Q, the abundance fitness was -0.652 ± 0.074.

L39H: the abundance fitness was -0.812 ± 0.072.

Take I16M: the abundance fitness was -0.325 ± 0.062.

In the case of N48R, the abundance fitness is -0.319 ± 0.08.

For E10W, the abundance fitness is -0.511 ± 0.086.

For the variant D43I, the abundance fitness is -0.584 ± 0.061.

D43M: the abundance fitness is -0.594 ± 0.056.

For the variant G1R, the abundance fitness was -0.203 ± 0.07.

With E67N, the abundance fitness was -0.1 ± 0.048.

For E67Y, the abundance fitness is -0.396 ± 0.056.

Take E67W: the abundance fitness was -0.438 ± 0.06.

These data come from the Human Domainome abundance scans (Beltran et al. 2025).
